# According to patent US20180250358A1, “GHRH AGONISTS FOR THE TREATMENT OF ISCHEMIC DISORDERS” (published 2018):
# Non-standard residues stand in square brackets, D forms with d. No end group written: not given here. *: point of attachment. Desaminotyrosyl = O=C(CCc1ccc(O)cc1)*; NMeY = CN[C@@H](Cc1ccc(O)cc1)C(=O)O; Nle = CCCC[C@H](N)C(=O)O; Orn = NCCC[C@H](N)C(=O)O; Abu = CC[C@H](N)C(=O)O; Aoc = NCCCCCCCC(=O)O; Ava = NCCCCC(=O)O; GABA = NCCCC(=O)O
# T1: GHRH receptor of human pituitary membranes (human, UniProt Q02643)
# T1 sequence: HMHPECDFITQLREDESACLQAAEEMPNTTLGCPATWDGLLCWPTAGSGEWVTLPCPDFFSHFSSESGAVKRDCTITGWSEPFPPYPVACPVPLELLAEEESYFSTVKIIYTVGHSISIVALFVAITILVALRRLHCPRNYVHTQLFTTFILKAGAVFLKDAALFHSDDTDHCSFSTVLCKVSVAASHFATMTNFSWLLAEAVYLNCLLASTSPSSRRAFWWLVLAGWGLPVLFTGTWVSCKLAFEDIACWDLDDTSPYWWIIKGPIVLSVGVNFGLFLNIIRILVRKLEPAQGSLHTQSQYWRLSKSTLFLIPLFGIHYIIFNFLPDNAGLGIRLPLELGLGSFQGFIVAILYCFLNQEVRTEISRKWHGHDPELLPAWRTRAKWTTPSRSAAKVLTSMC
# B1: P-27415 [N-Me-Tyr^1, Orn^12, Abu^15, Orn^21, Nle^27, Gab^30]hGHRH(1-30)NH-CH3 (peptide)
# peptide: YADAIFTNSYRKVLGQLSARKLLQDIMSRQ
# modifications: N-Me-Tyr^1; Orn^12; Abu^15; Orn^21; Nle^27; Gab^30 (in place of Gln^30); C-terminal -NH-CH3
# B2: P-27414 [N-Me-Tyr^1, D-Ala^2, Fpa5^6, Orn^12, Abu^15, Orn^21, Nle^27, Gab^30]hGHRH(1-30)NH-CH3 (peptide)
# peptide: B1 peptide
# modifications: N-Me-Tyr^1; D-Ala^2; Fpa5^6; Orn^12; Abu^15; Orn^21; Nle^27; Gab^30 (in place of Gln^30); C-terminal -NH-CH3
# B3: P-21301 [N-Me-Tyr^1, Orn^12, Abu^15, Orn^21, Nle^27, Asp^28, Amc^30]hGHRH(1-30)NH2 (peptide)
# peptide: [NMeY]ADAIFTNSYR[Orn]VL[Abu]QLSAR[Orn]LLQDI[Nle]DR[Aoc]-NH2
# modifications: N-terminus assumed
# SMILES: CCCC[C@H](NC(=O)[C@@H](NC(=O)[C@H](CC(=O)O)NC(=O)[C@H](CCC(N)=O)NC(=O)[C@H](CC(C)C)NC(=O)[C@H](CC(C)C)NC(=O)[C@H](CCCN)NC(=O)[C@H](CCCNC(=N)N)NC(=O)[C@H](C)NC(=O)[C@H](CO)NC(=O)[C@H](CC(C)C)NC(=O)[C@H](CCC(N)=O)NC(=O)[C@H](CC)NC(=O)[C@H](CC(C)C)NC(=O)[C@@H](NC(=O)[C@H](CCCN)NC(=O)[C@H](CCCNC(=N)N)NC(=O)[C@H](Cc1ccc(O)cc1)NC(=O)[C@H](CO)NC(=O)[C@H](CC(N)=O)NC(=O)[C@@H](NC(=O)[C@H](Cc1ccccc1)NC(=O)[C@@H](NC(=O)[C@H](C)NC(=O)[C@H](CC(=O)O)NC(=O)[C@H](C)NC(=O)[C@H](Cc1ccc(O)cc1)NC)[C@@H](C)CC)[C@@H](C)O)C(C)C)[C@@H](C)CC)C(=O)N[C@@H](CC(=O)O)C(=O)N[C@@H](CCCNC(=N)N)C(=O)NCCCCCCCC(N)=O
# B4: P-25503 [N-Me-Tyr^1, Abu^2, Orn^12, Abu^15, Orn^21, Nle^27, Gab^30]hGHRH(1-30)NH2 (peptide)
# peptide: B1 peptide
# modifications: N-Me-Tyr^1; Abu^2; Orn^12; Abu^15; Orn^21; Nle^27; Gab^30 (in place of Gln^30); C-terminal -NH2
# B5: P-22325 [N-Me-Tyr^1, Gln^8, Orn^12, Abu^15, Orn^21, Nle^27, Asp^28, Apa^30]hGHRH(1-30)NH2 (peptide)
# peptide: [NMeY]ADAIFTQSYR[Orn]VL[Abu]QLSAR[Orn]LLQDI[Nle]DR[Ava]-NH2
# modifications: N-terminus assumed
# SMILES: CCCC[C@H](NC(=O)[C@@H](NC(=O)[C@H](CC(=O)O)NC(=O)[C@H](CCC(N)=O)NC(=O)[C@H](CC(C)C)NC(=O)[C@H](CC(C)C)NC(=O)[C@H](CCCN)NC(=O)[C@H](CCCNC(=N)N)NC(=O)[C@H](C)NC(=O)[C@H](CO)NC(=O)[C@H](CC(C)C)NC(=O)[C@H](CCC(N)=O)NC(=O)[C@H](CC)NC(=O)[C@H](CC(C)C)NC(=O)[C@@H](NC(=O)[C@H](CCCN)NC(=O)[C@H](CCCNC(=N)N)NC(=O)[C@H](Cc1ccc(O)cc1)NC(=O)[C@H](CO)NC(=O)[C@H](CCC(N)=O)NC(=O)[C@@H](NC(=O)[C@H](Cc1ccccc1)NC(=O)[C@@H](NC(=O)[C@H](C)NC(=O)[C@H](CC(=O)O)NC(=O)[C@H](C)NC(=O)[C@H](Cc1ccc(O)cc1)NC)[C@@H](C)CC)[C@@H](C)O)C(C)C)[C@@H](C)CC)C(=O)N[C@@H](CC(=O)O)C(=O)N[C@@H](CCCNC(=N)N)C(=O)NCCCCC(N)=O
# B6: P-21300 [Dat^1, D-Ala^2, Orn^12, Abu^15, Orn^21, Nle^27, Asp^28, Amc^30]hGHRH(1-30)NH2 (peptide)
# peptide: [Desaminotyrosyl][dA]DAIFTNSYR[Orn]VL[Abu]QLSAR[Orn]LLQDI[Nle]DR[Aoc]-NH2
# SMILES: CCCC[C@H](NC(=O)[C@@H](NC(=O)[C@H](CC(=O)O)NC(=O)[C@H](CCC(N)=O)NC(=O)[C@H](CC(C)C)NC(=O)[C@H](CC(C)C)NC(=O)[C@H](CCCN)NC(=O)[C@H](CCCNC(=N)N)NC(=O)[C@H](C)NC(=O)[C@H](CO)NC(=O)[C@H](CC(C)C)NC(=O)[C@H](CCC(N)=O)NC(=O)[C@H](CC)NC(=O)[C@H](CC(C)C)NC(=O)[C@@H](NC(=O)[C@H](CCCN)NC(=O)[C@H](CCCNC(=N)N)NC(=O)[C@H](Cc1ccc(O)cc1)NC(=O)[C@H](CO)NC(=O)[C@H](CC(N)=O)NC(=O)[C@@H](NC(=O)[C@H](Cc1ccccc1)NC(=O)[C@@H](NC(=O)[C@H](C)NC(=O)[C@H](CC(=O)O)NC(=O)[C@@H](C)NC(=O)CCc1ccc(O)cc1)[C@@H](C)CC)[C@@H](C)O)C(C)C)[C@@H](C)CC)C(=O)N[C@@H](CC(=O)O)C(=O)N[C@@H](CCCNC(=N)N)C(=O)NCCCCCCCC(N)=O
# Molecular target: T1, GHRH receptor of human pituitary …
# Test: competition vs 125I-JV-1-42, human pituitary membranes;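 also: pituitaries used were normal human glands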
# Source text: Normal human pituitaries were purchased from the National Hormone and Peptide Program (A.F. Parlow, Los Angeles, County Harbor-UCLA Medical Center, Torrance, Calif.).
IC50 [nM],relative affinity (binding potency) vs JI-38 [vs JI-38=1],Binder
3.02,1.44,B1
1.56,2.79,B2
2.99,1.45,B3
1.18,3.67,B4
3.8,1.14,B5
3.61,1.2,B6
1.22,3.57,"[NMeY]ADAIFTQSYR[Orn]VL[Abu]QLSAR[Orn]LLQDI[Nle]SRQ-{GABA-NH2} [P-29703 [N-Me-Tyr^1, Gln^8, Orn^12, Abu^15, Orn^21, Nle^27, Gln-Gab^30]hGHRH(1-30)NH2]"
